Experimental data from patent US20260151494A1 (ARO BIOTHERAPEUTICS, published 2026).
Read-outs that look alike come from different tables or passages of the source.

Columns and labels:
[1] = target: T1, human CD71 on cells (SKBR3; SW620-rLuc-KRAS) (human, UniProt P02786 1-760); test: cell-based or functional assay
[2] = target: T2, human CD71 extracellular domain (CD71-ECD) (human, UniProt P02786 89-760); test: capture ELISA, 20 nM antigen on Neutravidin plate, FN3 titrated 250 to 0.3 nM
T2 construct: It was captured on a Neutravidin plate; also called hCD71; transferrin receptor 1 ECD
T2 sequence (P02786 89-760): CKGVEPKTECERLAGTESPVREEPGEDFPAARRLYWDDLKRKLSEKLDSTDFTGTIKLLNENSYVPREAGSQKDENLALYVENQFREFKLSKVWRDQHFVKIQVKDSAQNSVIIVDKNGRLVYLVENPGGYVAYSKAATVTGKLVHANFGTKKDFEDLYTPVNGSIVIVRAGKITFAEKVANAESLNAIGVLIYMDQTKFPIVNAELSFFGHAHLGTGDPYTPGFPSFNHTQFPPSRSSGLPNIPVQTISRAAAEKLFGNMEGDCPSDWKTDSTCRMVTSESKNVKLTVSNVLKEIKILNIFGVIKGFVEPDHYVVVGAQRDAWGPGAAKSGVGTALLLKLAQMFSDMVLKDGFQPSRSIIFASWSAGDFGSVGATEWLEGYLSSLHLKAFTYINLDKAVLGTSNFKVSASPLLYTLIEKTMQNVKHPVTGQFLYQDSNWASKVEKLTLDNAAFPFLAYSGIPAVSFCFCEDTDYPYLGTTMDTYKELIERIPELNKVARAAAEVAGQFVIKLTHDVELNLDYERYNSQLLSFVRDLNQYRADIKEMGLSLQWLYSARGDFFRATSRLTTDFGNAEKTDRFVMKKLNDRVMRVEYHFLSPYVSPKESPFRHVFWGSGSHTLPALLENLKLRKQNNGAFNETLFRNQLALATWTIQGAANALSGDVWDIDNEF
Experimental: (§1) Select CD71-binding FN3 domains identified in Example 4 above were chosen to determine their binding to both human and cynomolgus monkey CD71 extracellular domain (CD71-ECD). Capture ELISA using CD71 binding to FN3 domains was performed, with the FN3 domains being titrated from 250 nM to 0.3 nM. 20 nM of antigen was incubated on a Neutravidin® plate for 1 hour at room temperature. The FN3 domains were incubated for 16 hours at room temperature.

[3] = target: T3, cynomolgus monkey CD71 extracellular domain (CD71-ECD) (cynomolgus monkey, UniProt H9EXL1 89-760 (rhesus entry)); test: as above
T3 construct: extracellular domain; It was captured on a Neutravidin plate; also called cynomolgus CD71-ECD
T3 sequence (chain, as listed by the source): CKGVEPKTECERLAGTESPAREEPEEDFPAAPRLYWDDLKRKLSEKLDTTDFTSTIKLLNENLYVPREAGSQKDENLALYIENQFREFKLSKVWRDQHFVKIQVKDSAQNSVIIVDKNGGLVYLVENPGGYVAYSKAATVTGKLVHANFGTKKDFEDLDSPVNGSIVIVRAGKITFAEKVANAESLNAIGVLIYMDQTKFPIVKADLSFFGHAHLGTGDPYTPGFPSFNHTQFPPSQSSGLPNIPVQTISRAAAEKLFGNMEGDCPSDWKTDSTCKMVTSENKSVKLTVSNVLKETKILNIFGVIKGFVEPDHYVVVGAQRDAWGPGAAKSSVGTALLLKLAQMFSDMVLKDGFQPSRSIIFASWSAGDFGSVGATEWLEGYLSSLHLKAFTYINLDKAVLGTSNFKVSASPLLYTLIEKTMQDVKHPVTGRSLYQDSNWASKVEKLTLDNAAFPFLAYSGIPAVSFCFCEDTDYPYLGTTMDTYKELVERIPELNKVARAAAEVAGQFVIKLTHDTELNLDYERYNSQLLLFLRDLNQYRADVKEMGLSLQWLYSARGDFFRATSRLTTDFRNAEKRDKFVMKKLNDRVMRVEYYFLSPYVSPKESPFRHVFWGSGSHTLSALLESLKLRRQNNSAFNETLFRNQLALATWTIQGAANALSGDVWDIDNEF
Experimental: as §1

[4] = target: T1, human CD71 on cells (SKBR3; …); test: cell-based or functional assay; remark: listed apart in the source
[5] = target: T4, human CD71 extracellular domain (human, UniProt P02786 89-760); test: primary ELISA, ratio of signal to HSA control
T4 construct: also called hCD71; human CD71-ECD
T4 sequence (P02786 89-760): as the sequence (P02786 89-760) above

[6] = target: T5, apical domain of cynomolgus CD71 (cynomolgus, UniProt A0A2K5X958 189-383); test: primary ELISA, ratio of signal to HSA control
T5 construct: domain: apical domain; also called Cyno apical domain
T5 sequence (A0A2K5X958 entry or part of it): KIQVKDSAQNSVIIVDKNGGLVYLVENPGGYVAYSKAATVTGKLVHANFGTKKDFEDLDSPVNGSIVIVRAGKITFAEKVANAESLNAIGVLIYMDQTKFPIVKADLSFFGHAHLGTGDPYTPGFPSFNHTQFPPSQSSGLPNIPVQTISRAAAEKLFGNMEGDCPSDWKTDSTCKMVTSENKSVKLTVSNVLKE

[7] = target: T4, human CD71 extracellular domain; test: primary ELISA, luminescence
[8] = target: T5, apical domain of cynomolgus CD71; test: primary ELISA, luminescence

T1 sequence (P02786 whole entry, the tested form may be a part): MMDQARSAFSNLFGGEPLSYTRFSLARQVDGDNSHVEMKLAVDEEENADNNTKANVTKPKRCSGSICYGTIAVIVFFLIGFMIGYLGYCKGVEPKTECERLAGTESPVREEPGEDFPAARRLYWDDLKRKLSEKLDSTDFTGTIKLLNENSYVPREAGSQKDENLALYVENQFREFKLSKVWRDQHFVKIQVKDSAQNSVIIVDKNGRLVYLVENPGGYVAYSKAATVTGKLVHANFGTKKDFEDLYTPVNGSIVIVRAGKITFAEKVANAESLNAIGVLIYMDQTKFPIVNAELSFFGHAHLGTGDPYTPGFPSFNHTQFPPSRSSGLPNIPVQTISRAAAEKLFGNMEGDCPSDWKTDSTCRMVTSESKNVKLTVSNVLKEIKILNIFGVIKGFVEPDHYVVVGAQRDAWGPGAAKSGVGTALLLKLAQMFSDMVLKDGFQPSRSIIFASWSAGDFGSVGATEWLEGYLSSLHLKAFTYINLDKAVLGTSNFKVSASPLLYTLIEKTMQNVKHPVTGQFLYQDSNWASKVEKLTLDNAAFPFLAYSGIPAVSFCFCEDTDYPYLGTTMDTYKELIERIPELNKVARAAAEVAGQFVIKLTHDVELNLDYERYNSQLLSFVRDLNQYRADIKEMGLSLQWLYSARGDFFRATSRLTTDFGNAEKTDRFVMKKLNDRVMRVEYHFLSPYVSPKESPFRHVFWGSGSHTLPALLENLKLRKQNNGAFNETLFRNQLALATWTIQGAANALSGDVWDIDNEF

CTG EC50 (CellTiter-Glo luminescent assay, SKBR3 cells, 72 h) [1] [nM] | EC50 [2] [nM] | EC50 [3] [nM] | CTG EC50 (CellTiter-Glo luminescent assay, SKBR3 cells, 72 h) [4] [nM] | Binder | further results
0.3 | 0.4 | 0.7 | – | CD71-binding FN3 domain of SEQ ID NO: 472 (designed binder, Tencon-based FN3 domain) MLPAPKNLVVSRVTEDSARLSWTAPDAAFDSFFIGYLEPQPPGEAIELYVPGSERSYDLTGLKPGTEYNVTIQGVKGGFPSLPLVATFTT | –
0.6 | 0.4 | 0.6 | – | CD71-binding FN3 domain of SEQ ID NO: 478 (designed binder, Tencon-based FN3 domain) MLPAPKNLVVSRVTEDSARLSWTAPDAAFDSFFIGYLEPQPPGEAIHLYVPGSERSYDLTGLKPGTEYNVTIQGVKGGFPSVPLIAKFTT | –
2.9 | 2.8 | 4.3 | – | CD71-binding FN3 domain of SEQ ID NO: 400 (designed binder, Tencon-based FN3 domain) MLPAPKNLVVSRVTEDSARLSWTAPDAAFDSFFIGYLEPQPPGEAIHLFVPGSERSYDLTGLKPGTEYNVTIQGVKGGFPSGPLHATFTT | –
1.2 | 2.5 | 24.9 | – | CD71-binding FN3 domain of SEQ ID NO: 465 (designed binder, Tencon-based FN3 domain) MLPAPKNLVVSRVTEDSARLSWTAPDAAFDSFFIGYLEPQPPGEAIDLYVPGSERSYDLTGLKPGTEYNVTIQGVKGGFPSEPLWADFTT | –
9.8 | 14.1 | 23 | – | CD71-binding FN3 domain of SEQ ID NO: 483 (designed binder, Tencon-based FN3 domain) MLPAPKNLVVSRVTEDSARLSWTAPDAAFDSFFIGYLEPQPPGEAITLVVPGSERSYDLTGLKPGTEYNVTIQGVKGGFPSDPLVASFTT | –
0.4 | 0.91 | 1.6 | – | CD71-binding FN3 domain of SEQ ID NO: 373 (designed binder, Tencon-based FN3 domain) MLPAPKNLVVSRVTEDSARLSWTAPDAAFDSFFIGYLEPQPPGEAISLFVPGSERSYDLTGLKPGTEYNVTIQGVKGGFPSDPLVASFTT | –
12.6 | 4.3 | 34.9 | – | CD71-binding FN3 domain of SEQ ID NO: 473 (designed binder, Tencon-based FN3 domain) MLPAPKNLVVSRVTEDSARLSWTAPDAAFDSFFIGYLEPQPPGEAIDLWVPGSERSYDLTGLKPGTEYNVTIQGVKGGFPSLPLSASFTT | –
71.5 | 3.2 | 5 | – | CD71-binding FN3 domain of SEQ ID NO: 447 (designed binder, Tencon-based FN3 domain) MLPAPKNLVVSRVTEDSARLSWTAPDAAFDSFFIGYLEPQPPGEAIYLYVPGSERSYDLTGLKPGTEYNVTIQGVKGGFPSYPLTAQFTT | –
2.7 | 2.1 | 17.7 | – | CD71-binding FN3 domain of SEQ ID NO: 476 (designed binder, Tencon-based FN3 domain) MLPAPKNLVVSRVTEDSARLSWTAPDAAFDSFFIGYLEPQPPGEAIHLQVPGSERSYDLTGLKPGTEYNVTIQGVKGGFPSIPLIAVFTT | –
– | – | – | 0.07 | CD71-binding FN3 domain of SEQ ID NO: 234 (designed binder) MSLPAPKNLVVSRVTEDSARLSWTAPDAAFDSFFIGYLEPQPPGEAIALYVPGSERSYDLTGLKPGTEYNVTIQGVKGGFPSEPLVAHFTT | –
– | – | – | 0.06 | CD71-binding FN3 domain of SEQ ID NO: 281 (designed binder) MSLPAPKNLVVSRVTEDSARLSWTAPDAAFDSFFIGYLEPQPPGEAIALYVPGSERSYDLTGLKPGTEYNVTIQGVKGGFPSEPLIANFTT | –
– | – | – | 0.16 | CD71-binding FN3 domain of SEQ ID NO: 264 (designed binder) MSLPAPKNLVVSRVTEDSARLSWTAPDAAFDSFFIGYLEPQPPGEAIALYVPGSERSYDLTGLKPGTEYNVTIQGVKGGFPSEPLVVHFTT | –
– | – | – | 0.57 | CD71-binding FN3 domain of SEQ ID NO: 333 (designed binder) MSLPAPENLVVSRVTEDSARLSWTAPDAAFDSFFIGYLEPQPPGEAIALYVPGSERSYDLTGLKPGTEYNVTIQGVKGGFPSLPLVATFTT | –
– | – | – | 0.04 | CD71-binding FN3 domain of SEQ ID NO: 972 (designed binder) MSLPAPKNLVVSRVTEDSARLSWTAPDAAFDSFFIGYLEPQPPGEAIALYVPGSERSYDLTGLKPGTEYNVTIQGAKGGFPSEPLVVHFTT | –
– | – | – | 0.07 | CD71-binding FN3 domain of SEQ ID NO: 973 (designed binder) MSLPAPKNLVVSRVTEDSARLSWTAPDAAFDSFFIGYLEPQPPGEAIHLYVPGSERSYDLTGLKPGTEYNGTIQGVKVGFPSEPLIANFTT | –
– | – | – | 0.21 | CD71-binding FN3 domain of SEQ ID NO: 343 (designed binder) MSLPAPKNLVVSRVTEDSARLSWTAPDAAFDSFFIGYLEPQPPGEAIALWVPGSERSYDLTGLKPGTEYNVTIQGVKGGFPSEPLVATFTT | –
– | – | – | 0.05 | CD71-binding FN3 domain of SEQ ID NO: 331 (designed binder) MSLPAPKNLVVSRVTEDSARLSWTAPDAAFDSFFIGYLEPQPPGEAIHLYVPGSERSYDLTGLKPGTEYNVTIQGVKVGFPSEPLIANFTT | –
– | – | – | 0.15 | CD71-binding FN3 domain of SEQ ID NO: 974 (designed binder) MSLPAPKNLVVSRVTEDSARLSWTAPDAAFDSFFIGYLEPQPPGEAIALYVPGSERSYDLTGLKPGTEYNVTIQGVKGGFPSLPLVATFTT | –
– | – | – | 0.01 | CD71-binding FN3 domain of SEQ ID NO: 290 (designed binder) MSLPAPKNLVVSRVTEDSARLSWTAPDAAFDSFFIGYLEPQPPGEAIHLYVPGSERSYDLTGLKPGTEYNVTIQGVKGGFPSEPLVATFTT | –
– | – | – | 0.57 | CD71-binding FN3 domain of SEQ ID NO: 270 (designed binder) MSLPAPKNLVVSRVTEDSARLSWTAPDAAFDSFFIGYLEPQPPGEAIHLYVPGSERSYDLTGLKPGTEYNVTIQGVKGGFPSEPLIANSTT | –
– | – | – | 0.11 | CD71-binding FN3 domain of SEQ ID NO: 341 (designed binder) MSLPAPKNLVVSRVTEDSARLSWTAPDAAFDSFFIGYLEPQPPGEAIELYVPGSERSYDLTGLKPGTEYNVTIQGVKGGFPSLPLVAIFTT | –
– | – | – | 0.04 | CD71-binding FN3 domain of SEQ ID NO: 335 (designed binder) MSLPAPKNLVVSRVTEDSARLSWTAPDAAFDSFFIGYLEPQPPGEAIDLYVPGSERSYDLTGLKPGTEYNVTIQGVKGGFPSLPLVATFTT | –
– | – | – | – | CD71-binding FN3 domain of SEQ ID NO: 229 (designed binder) MSLPAPKNLVVSRVTEDSARLSWTAPDAAFDSFSIMYAEQKVNGEAIVLTVPGSERSYDLTGLKPGTEYLVLIWGVKGGGRSLPLSAIFTT | hCD71:HSA [5]: 90; Cyno apical domain:HSA [6]: 119; RLU [7]: 3.42e+06 RLU; RLU [8]: 4.52e+06 RLU
14.4 | 10 | – | – | CD71-binding FN3 domain of SEQ ID NO: 540 (designed binder, Tencon-based FN3 domain) MLPAPKNLVVSRVTEDSARLSWTAPDAAFDSFYIAYAEPRPDGEAIILVVPGSERSYDLTGLKPGTEYSVLIHGVKGGLLSSPLDAGFTT | –
